Reference: patent US20180298361A1 (CHO PHARMA, published 2018)

Experiments:
[1] = molecular target: T1, recombinant soluble FcγRIIIA (UniProt P08637 17-208, limits assumed); assay: ELISA; recombinant soluble FcγRIIIA coated on plate; against commercial Rituximab
T1 construct: also called FcγIIIA; FcTRIIIA
Procedure: (§1) Microtiter plate (Corning® 96 Well Clear Flat Bottom Polystyrene High Bind, #9018) was coated with 50 ng/well of recombinant soluble FcγRIIIA diluted in 50 mM Bicarbonate/carbonate coating buffer (pH 10) overnight at 4° C. The plate was then washed 3 times with PBST (0.05% Tween 20 in PBS) and blocked with 5% BSA in PBST for 1 h at room temperature. The binding activity of glycoengineered antibodies (Rtx G1-G16) was determined for serial eight dilutions, starting with concentration of 100 μg/m1 in 2% BSA/PBST in duplicates. The plate was incubated for 1 h at room temperature, and washed 3 times with PBST. Next, 100 μl of goat anti-human IgG conjugated to horseradish peroxidase (Jackson immune, #109-035-088) in 2% BSA/PBST was added per well and incubated for 30 min at room temperature. The plate was washed 5 times with PBST then 100 μL per well of TMB substrate (eBioscience, #00-4201-56) was added and the resulting plate was incubated in the dark 15 min at room temperature. The absorbance value was determined at 450 nm in an ELISA reader (Molecular Devices Corporation, Sunnyvale, Calif., USA).

[2] = molecular target: T1, recombinant soluble FcγRIIIA; assay: ELISA; recombinant soluble FcγRIIIA coated on plate, antibody titrated, anti-human IgG-HRP detection
Procedure: as §1

T1 sequence (P08637 17-208 limits assumed): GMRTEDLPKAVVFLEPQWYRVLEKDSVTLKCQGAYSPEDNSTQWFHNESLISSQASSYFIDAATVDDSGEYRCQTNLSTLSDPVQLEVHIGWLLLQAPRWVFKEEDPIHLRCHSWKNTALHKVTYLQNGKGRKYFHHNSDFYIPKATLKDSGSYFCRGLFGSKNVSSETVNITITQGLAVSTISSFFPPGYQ

Binder	EC50 improvement Folds [1] [fold]	EC50 [2] [µg/mL]	Maxi binding (A450 nm) [2] [A450 nm]
Rtx-G10 (antibody, human IgG1, kappa, homogeneous N-glycan G10 without core fucose (bi-antennary complex type with alpha 1,3 fucose on both GlcNAc and terminal di-galactose) at Asn-297, also called glycoengineered Rituximab G10; bi-antennary complex type glycoform) heavy: not shown light: QIVLSQSPAILSASPGEKVTMTCRASSSVSYIHWFQQKPGSSPKPWIYATNLASGVPVRFSGSGSGTSYSLTISRVEAEDAATYYCQQWTSNPPTFGGGTKLEIKRTVAAPSVFIFPPSDEQLKSGTASVVCLLNNFYPREAKVQWKVDNALQSGNSQESVTEQDSKDSTYSLSSTLTLSKADYEKHKVYACEVTHQGLSSPVTKSFNRGEC	26	0.043	2.2
Rtx-G11 (antibody, human IgG1, kappa, homogeneous N-glycan G11 (bi-antennary complex type; structure only in FIG. 15) at Asn-297, also called glycoengineered Rituximab G11; bi-antennary complex type glycoform) heavy: not shown light: QIVLSQSPAILSASPGEKVTMTCRASSSVSYIHWFQQKPGSSPKPWIYATNLASGVPVRFSGSGSGTSYSLTISRVEAEDAATYYCQQWTSNPPTFGGGTKLEIKRTVAAPSVFIFPPSDEQLKSGTASVVCLLNNFYPREAKVQWKVDNALQSGNSQESVTEQDSKDSTYSLSSTLTLSKADYEKHKVYACEVTHQGLSSPVTKSFNRGEC	5.4	0.199	2.4
Rtx-G12 (antibody, human IgG1, kappa, homogeneous N-glycan G12 (bi-antennary complex type; structure only in FIG. 15) at Asn-297, also called glycoengineered Rituximab G12; bi-antennary complex type glycoform) heavy: not shown light: QIVLSQSPAILSASPGEKVTMTCRASSSVSYIHWFQQKPGSSPKPWIYATNLASGVPVRFSGSGSGTSYSLTISRVEAEDAATYYCQQWTSNPPTFGGGTKLEIKRTVAAPSVFIFPPSDEQLKSGTASVVCLLNNFYPREAKVQWKVDNALQSGNSQESVTEQDSKDSTYSLSSTLTLSKADYEKHKVYACEVTHQGLSSPVTKSFNRGEC	33	0.033	2.6
Rtx-G1 (antibody, human IgG1, kappa, homogeneous non-fucosylated N-glycan G1 (high mannose type, Man5GlcNAc2) at Asn-297, also called glycoengineered Rituximab G1; Man5GlcNAc2 glycoform) heavy: not shown light: QIVLSQSPAILSASPGEKVTMTCRASSSVSYIHWFQQKPGSSPKPWIYATNLASGVPVRFSGSGSGTSYSLTISRVEAEDAATYYCQQWTSNPPTFGGGTKLEIKRTVAAPSVFIFPPSDEQLKSGTASVVCLLNNFYPREAKVQWKVDNALQSGNSQESVTEQDSKDSTYSLSSTLTLSKADYEKHKVYACEVTHQGLSSPVTKSFNRGEC	6.5	0.16	1.4
Rtx-G13 (antibody, human IgG1, kappa, homogeneous N-glycan G13 (bi-antennary complex type; structure only in FIG. 15) at Asn-297, also called glycoengineered Rituximab G13; bi-antennary complex type glycoform) heavy: not shown light: QIVLSQSPAILSASPGEKVTMTCRASSSVSYIHWFQQKPGSSPKPWIYATNLASGVPVRFSGSGSGTSYSLTISRVEAEDAATYYCQQWTSNPPTFGGGTKLEIKRTVAAPSVFIFPPSDEQLKSGTASVVCLLNNFYPREAKVQWKVDNALQSGNSQESVTEQDSKDSTYSLSSTLTLSKADYEKHKVYACEVTHQGLSSPVTKSFNRGEC	22	0.048	2.6
Rtx-G14 (antibody, human IgG1, kappa, homogeneous N-glycan G14 (bi-antennary complex type; structure only in FIG. 15) at Asn-297, also called glycoengineered Rituximab G14; bi-antennary complex type glycoform) heavy: not shown light: QIVLSQSPAILSASPGEKVTMTCRASSSVSYIHWFQQKPGSSPKPWIYATNLASGVPVRFSGSGSGTSYSLTISRVEAEDAATYYCQQWTSNPPTFGGGTKLEIKRTVAAPSVFIFPPSDEQLKSGTASVVCLLNNFYPREAKVQWKVDNALQSGNSQESVTEQDSKDSTYSLSSTLTLSKADYEKHKVYACEVTHQGLSSPVTKSFNRGEC	33	0.033	2.4
Rtx-G15 (antibody, human IgG1, kappa, homogeneous N-glycan G15 (bi-antennary complex type; structure only in FIG. 15) at Asn-297, also called glycoengineered Rituximab G15; bi-antennary complex type glycoform) heavy: not shown light: QIVLSQSPAILSASPGEKVTMTCRASSSVSYIHWFQQKPGSSPKPWIYATNLASGVPVRFSGSGSGTSYSLTISRVEAEDAATYYCQQWTSNPPTFGGGTKLEIKRTVAAPSVFIFPPSDEQLKSGTASVVCLLNNFYPREAKVQWKVDNALQSGNSQESVTEQDSKDSTYSLSSTLTLSKADYEKHKVYACEVTHQGLSSPVTKSFNRGEC	32	0.034	2.3
Rtx-G16 (antibody, human IgG1, kappa, homogeneous non-fucosylated N-glycan G16 (bi-antennary complex type with terminal alpha-2,6 sialic acids) at Asn-297, also called glycoengineered Rituximab G16; bi-antennary complex type glycoform) heavy: not shown light: QIVLSQSPAILSASPGEKVTMTCRASSSVSYIHWFQQKPGSSPKPWIYATNLASGVPVRFSGSGSGTSYSLTISRVEAEDAATYYCQQWTSNPPTFGGGTKLEIKRTVAAPSVFIFPPSDEQLKSGTASVVCLLNNFYPREAKVQWKVDNALQSGNSQESVTEQDSKDSTYSLSSTLTLSKADYEKHKVYACEVTHQGLSSPVTKSFNRGEC	34	0.032	2.5
Rtx-G2 (antibody, human IgG1, kappa, homogeneous non-fucosylated N-glycan G2 (high mannose type, Man9GlcNAc2) at Asn-297, also called glycoengineered Rituximab G2; Man9GlcNAc2 glycoform) heavy: not shown light: QIVLSQSPAILSASPGEKVTMTCRASSSVSYIHWFQQKPGSSPKPWIYATNLASGVPVRFSGSGSGTSYSLTISRVEAEDAATYYCQQWTSNPPTFGGGTKLEIKRTVAAPSVFIFPPSDEQLKSGTASVVCLLNNFYPREAKVQWKVDNALQSGNSQESVTEQDSKDSTYSLSSTLTLSKADYEKHKVYACEVTHQGLSSPVTKSFNRGEC	~1	1.05	1.1
